Data published in PMC9280689, “Resistance to Powdery Mildew in Qingke Involves the Accumulation of Aromatic Phenolamides Through Jasmonate-Mediated Activation of Defense-Related Genes” (Frontiers in Plant Science, 2022).

Columns and labels:
Test in all cases: purified protein
purified protein [1] = substrate: CC(C)(COP(=O)(O)OP(=O)(O)OC[C@H]1O[C@@H](n2cnc3c(N)ncnc32)[C@H](O)[C@@H]1OP(=O)(O)O)[C@@H](O)C(=O)NCCC(=O)NCCSC(=O)/C=C/c1ccc(O)c(O)c1; conditions: acyl donor, amine acceptor 100 μM (which amine not told), 10 mM MgCl2, Tris-HCl pH 7.4, 30 °C
purified protein [2] = substrate: COc1cc(/C=C/C(=O)SCCNC(=O)CCNC(=O)[C@H](O)C(C)(C)COP(=O)(O)OP(=O)(O)OC[C@H]2O[C@@H](n3cnc4c(N)ncnc43)[C@H](O)[C@@H]2OP(=O)(O)O)ccc1O; conditions: acyl donor, amine acceptor 100 μM (which amine not told), 10 mM MgCl2, Tris-HCl pH 7.4, 30 °C
purified protein [3] = substrate: CC(C)(COP(=O)(O)OP(=O)(O)OC[C@H]1O[C@@H](n2cnc3c(N)ncnc32)[C@H](O)[C@@H]1OP(=O)(O)O)[C@@H](O)C(=O)NCCC(=O)NCCSC(=O)/C=C/c1ccc(O)cc1; conditions: acyl donor, amine acceptor 100 μM (which amine not told), 10 mM MgCl2, Tris-HCl pH 7.4, 30 °C
purified protein [4] = substrate: NCCCCN; conditions: acyl acceptor, feruloyl-CoA 50 μM as donor, 10 mM MgCl2, Tris-HCl pH 7.4, 30 °C

B1: HvACT (Hordeum vulgare) (protein)
chain: MKITVHSSKAVKPEYGACGLAPGCTADVVPLTVLDKANFDTYISVIYAFHAPAPPNAVLEAGLGRALVDYREWAGRLGVDASGGRAILLNDAGARFVEATADVALDSVMPLKPTSEVLSLHPSGDDGPEELMLIQVTRFACGSLVVGFTTQHIVSDGRSTGNFFVAWSQATRGAAIDPVPVHDRASFFHPREPLHVEYEHRGVEFKPCEKAHDVVCGADGDEDEVVVNKVHFSREFISKLKAHASAGAPRPCSTLQCVVAHLWRSMTMARGLDGGETTSVAIAVDGRARMSPQVPDGYTGNVILWARPTTTAGELVTRPVKHAVELISREVARINDGYFKSFIDFANSGAVEKERLVATADAADMVLSPNIEVDSWLRIPFYDMDFGGGRPFFFMPSYLPVEGLLILLPSFLGDGSVDAYVPLFSRDMNTFKNCCYSLD
Km (purified protein [1]): 483.5 ± 63.2 µM
kcat (purified protein [1]): 0.175 s⁻¹
Km (purified protein [2]): 161.3 ± 36.5 µM
kcat (purified protein [2]): 0.736 s⁻¹
kcat/Km (purified protein [2]): 5000 M⁻¹ s⁻¹
Km (purified protein [3]): 104.9 ± 26.3 µM
kcat (purified protein [3]): 1.04 s⁻¹
kcat/Km (purified protein [3]): 10000 M⁻¹ s⁻¹
Km (purified protein [4]): 7.11 ± 2.14 µM
kcat (purified protein [4]): 2.51 s⁻¹
kcat/Km (purified protein [4]): 353000 M⁻¹ s⁻¹
